Tests used:
[1] = Particle size, polydispersity and zeta-potential by dynamic light scattering; format: physicochemical
Procedure: Nanoparticle carrier particles were formed by the methods of the preceding Example, and characterized as follows. The particle size and the zeta-potential were measured using Zeta Plus zeta-potential analyzer (Brookhaven Instruments Ltd., New York, N.Y.), which employs the dynamic light scattering technique for particle size measurement. The particle size and zeta-potential measurements were made after 1:1000 dilution of particle stock in filtered deionized water. Further, the particles were visualized using a transmission electron microscope (TEM). The carbon-coated grids were floated on a suspension droplet of plain or functionalized nanoparticles on a flexible plastic film (Parafilm, Pechiney Plastic Packaging, Neenah, Wis.) to allow the adsorption of nanoparticles onto the grid. After drying the particles, uranyl acetate was added as a negative stain to the carbon grid and allowed to react with the particles. This procedure makes the particles electron dense, allowing their visualization using an electron microscope. The particles were photographed using EM410 Phillips electron microscope (Eindhoven, The Netherlands) set at 60 kV and a magnification of 153000×.
Characterization of particles: The particle size and the zeta-potential were measured using ZetaPlus® zeta-potential analyzer, Brookhaven Instruments Ltd. (New York, N.Y.), which employs the dynamic light scattering technique for particle size measurement. The particle size and zeta-potential measurements were carried out after 1:1000 dilution of particle stock in filtered deionized water before lyophilization in filtered deionized water. The effective diameter of conjugated nanoparticles was higher than that of unconjugated nanoparticles.
Particle Size Analysis: Particle size and zeta-potential of the nanoparticles before and after conjugation following lyophilization were measured in double distilled water (100 μl of particle/1 ml of water) using dynamic light scattering (DLS). After lyophilization the plasmid loaded particles were weighed (1 mg) into glass Kimble tubes. To each tube, 1 ml of double distilled water was added and vortexed at high speed (Vortex Genie, Scientific Industries, Bohemia, N.Y.) till the particles were resuspended. The particle size and zeta potential was determined using dynamic light scattering after dilution (1:10 in double distilled water) (Brookhaven Instruments Corp., Holtsville, N.Y.). Nanoparticle size after lyophilization was 210.4±0.68 nm and zeta potential was −32.85±0.87 mV. Nanoparticle size and zeta potential was measured after conjugation with deslorelin and transferrin. Similarly, the unconjugated nanoparticles were also treated under the same conditions as with the conjugated nanoparticles (the conjugation protocol as mentioned above).
(§1) Transport studies were conducted in bovine nasal tissue. Bovine nasal tissue was obtained from freshly slaughtered cattle, and different regions (MTA, MTP, ITP) were prepared as described in Example 13. Nanoparticles coupled to deslorelin or transferring via aldehyde sulfate moieties were prepared as described in Example 3. The nanoparticle size was measured using a Zeta Plus Analyzer (Brookhaven Instruments Limited, UK). Particle size was analyzed before and after ligand conjugation in deionized filtered water.

[2] = tested on: excised bovine nasal tissue (MTA, MTP, ITP regions); assay: Nanoparticle transport and uptake across excised bovine nasal tissue (Ussing chambers); format: in vitro ADME; conditions: for Remaining in Donor / Total / Washes: mass balance; for Tissue Uptake / Transport: mass balance after 4 hr transport; for decrease in transport on co-treatment with free ligand / decrease in uptake on co-treatment with free ligand: m:s
Procedure: as §1
The tissues were exposed to 5 ml of assay buffer with either peptide conjugated or plain nanoparticles on the donor side (mucosal or serosal surface). Assay buffer (5 ml) without particles was exposed to the receiver side (serosal or mucosal surface). The buffers used were pre-equilibrated to 37° C. or 4° C. The donor nanoparticle concentration was 20 or 100 μg/ml. […] Donor samples were collected at the beginning (replenished with particle stock suspension) and at the end of the experiment. The samples were collected in polypropylene tubes, capped, and stored at 4° C. until analysis. The aperture/tissue area exposed to the bathing fluids in this set up was 1.78 cm^2.
Nanoparticle Uptake: At the end of 4 hr in the above transport studies, the tissues exposed (1.78 cm^2) to the nanoparticle suspension were cut and washed thrice using 1 ml of assay buffer at pH 5. After the washes, the tissues were weighed and placed in 1 ml of 2% Triton-X 100™ and homogenized until a tissue suspension was formed using the Tissue Tearor™. The tissue debris was separated by centrifugation at 3000 rpm (Marathon Micro A, Fisher Scientific, Pittsburgh, Pa.) for 10 min. The supernatant was collected to analyze the amount of nanoparticles taken up by the tissue. Standard curves were prepared by homogenizing serial dilution of the stock solution with approximately 100-150 mg of nasal tissue. The homogenates were then centrifuged and the supernatant was analyzed.
Nanoparticle Transport and Uptake: Competition with Free Ligand: Similar to the transport and uptake studies mentioned above, the competition study was carried out using the modified Ussing chambers. The tissues were exposed to 20 μg/ml of nanoparticles conjugated with deslorelin or transferrin in the presence of 10 times (200 μg/ml) of plain deslorelin or transferrin in the donor chamber. Receiver samples were obtained at various intervals up to 4 hr and replaced with pre-warmed assay buffer. At the end of 4 hr the tissue region exposed to the nanoparticle preparation was cut and washed in assay buffer at pH 5. The tissues were then homogenized and centrifuged. The supernatants were analyzed to determine nanoparticle uptake.
Nanoparticle Quantification: The samples obtained from the transport studies, washes and supernatants of tissue homogenates were analyzed for nanoparticle content using a spectrofluorometer (Cary Eclipse, Varian Inc.). The excitation wavelength of 505 nm and an emission wavelength of 515 nm were used. Bandwidths of 3 or 5 nm were used for the sample analysis after dilution as required. The procedure used for extraction of the nanoparticles was performed as mentioned in the methods section under nanoparticle uptake. […] Briefly, similar amounts of tissues (weighed to match weight of tissues obtained from the transport experiment) were spiked with serially diluted stock nanoparticle suspensions (0.3 μg/ml-100 μg/ml) prepared in 2% Triton-X 100™. The tissues were homogenized, centrifuged and the supernatant obtained was used for standards. Standard curves were also prepared in assay buffer and acid wash buffer.

[3] = 20 μg/ml nanoparticles + 200 μg/ml free ligand, ITP
[4] = 20 μg/ml nanoparticles + 200 μg/ml free ligand, MTP

Transferrin-AS: transferrin-aldehyde sulphate-conjugated polystyrene nanoparticles
Zeta potential ([1]; Table 2, polystyrene nanoparticles): −20.62 ± 0.82 mV
Measured Diameter ([1]; Table 2, polystyrene nanoparticles, 1:1000 dilution in filtered deionized water, includes hydrodynamic layer, n = 3): 67.5 ± 1.0 nm
Zeta potential ([1]; Table 6): −20.62 ± 0.82 mV
Effective diameter ([1]; Table 6, 1:1000 dilution in filtered deionized water): 67.5 ± 1.0 nm
transport in the s:m direction greater than in the m:s direction ([2]; ITP): 10%
Remaining in Donor ([2]; ITP): 94.51 ± 1.10%
Total ([2]; ITP): 98.62 ± 1.13%
Washes ([2]; ITP): 0.75 ± 0.10%
Tissue Uptake ([2]; ITP): 3.98 ± 0.10%
Transport ([2]; ITP): 1.97 ± 0.05%
transport in the s:m direction greater than in the m:s direction ([2]; MTA): 16%
uptake, times higher than plain nanoparticles ([2]; MTA): 3.6 times
percent transport as well as uptake, times higher than deslorelin-nanoparticles ([2]; MTA, MTP and ITP regions): 1.3-1.4 times
Remaining in Donor ([2]; MTA): 93.06 ± 0.99%
Total ([2]; MTA): 98.77 ± 0.95%
Washes ([2]; MTA): 0.50 ± 0.13%
Tissue Uptake ([2]; MTA): 2.13 ± 0.13%
Transport ([2]; MTA): 1.13 ± 0.07%
transport in the s:m direction greater than in the m:s direction ([2]; MTP): 17%
uptake, times higher than plain nanoparticles ([2]; MTP): 2.9 times
Remaining in Donor ([2]; MTP): 92.14 ± 2.20%
Total ([2]; MTP): 98.99 ± 0.52%
Washes ([2]; MTP): 0.60 ± 0.11%
Tissue Uptake ([2]; MTP): 2.99 ± 0.14%
Transport ([2]; MTP): 1.52 ± 0.11%
decrease in uptake at 4° C. compared to 37° C. ([2]; m:s direction, ITP): 77%
percent transport, times higher than plain nanoparticles ([2]; m:s direction, ITP): ~1.8 times
decrease in uptake at 4° C. compared to 37° C. ([2]; m:s direction, MTA): 58%
percent transport, times higher than plain nanoparticles ([2]; m:s direction, MTA): approximately 3.3 times
decrease in uptake at 4° C. compared to 37° C. ([2]; m:s direction, MTP): 70%
percent transport, times higher than plain nanoparticles ([2]; m:s direction, MTP): ~2.1 times
decrease in transport on co-treatment with free ligand [2, 3]: 25%
decrease in uptake on co-treatment with free ligand [2, 3]: 44%
decrease in uptake on co-treatment with free ligand ([2]; 20 μg/ml nanoparticles + 200 μg/ml free ligand, MTA): 43%
decrease in transport on co-treatment with free ligand [2, 4]: 33%
decrease in uptake on co-treatment with free ligand [2, 4]: 45%
decrease in transport on co-treatment with free ligand ([2]; 20 μg/ml nanoparticles + 200 μg/ml plain deslorelin or transferrin, MTA): 22%
decrease in uptake at 4° C. compared to 37° C. ([2]; s:m direction, ITP): 80%
decrease in uptake at 4° C. compared to 37° C. ([2]; s:m direction, MTA): 65%
decrease in uptake at 4° C. compared to 37° C. ([2]; s:m direction, MTP): 75%

Reference: patent US8821943B2, “Methods and compositions for targeted delivery of therapeutic agents” (Board of Regents of the University of Nebraska, priority 2006, dated 2014)
